Test results as given in article PMC11885566 (Communications Biology, 2025).

Biological target: SARS-CoV-2 XBB.1.16 RBD protein (SARS-CoV-2 Omicron XBB.1.16, strain)
Assay: BLI

B1: CYFN1006-1 (antibody, V domains shown)
VH: QMQLVQSGAEVKKPGESLKISCKGSGYTFSYYWIGWVRQMPGKGLEWMGIIYPGDSDTRYSPSFQGQVTISADKSISTAYLHWSSLKASDTAMYYCARQGDLGDWILLGYWGQGTLVTVSS
VL: QSALTQPRSVSGSLGQSVTISCTGISSDVGGDNYVSWYQQHPGKAPKLMIYDVSKRPSGVPDRFSGSKSGNTASLTISGLQADDEADYYCCSYALSRVVFGGGTMLTVL
How did the Kd turn out when B1 was run?
The Kd was 1.37 nM.
